Assay [1] has as its target cynomolgus CD30 on PHA, Con A and rIL-2 activated cynomolgus peripheral blood mononuclear cells (cynomolgus monkey). The assay is described as follows: Scatchard analysis, 125I-labelled antibody on PHA/Con A/IL-2 activated cynomolgus peripheral blood mononuclear cells.
In assay [2] the target is human CD30 expressed on cells (L540, L428, L1236, Karpas cell lines; activated human peripheral blood cells) (human) (UniProt P28908). The experiment in a line: Scatchard analysis, 125I-labelled antibody on L540 cells.
Assay [3] deals with human FcRgammaIIIa, Phe^158 allotype (human) (UniProt P08637). The experiment in a line: SPR (Biacore): mAb captured on a surface coated with recombinant human CD30, FcRγIIIa Phe158 (CD16-Phe) flowed over, equilibrium signal fitted to a one-site model; Binding Constants (nM). A general note: In SPR one partner is held on a chip, and binding of the other changes the refractive index at the surface.

For assay [4], the target named is human FcRgammaIIIa, Val^158 allotype (human) (UniProt P08637). The assay is described as follows: SPR (Biacore): mAb captured on a surface coated with recombinant human CD30, FcRγIIIa Val158 (CD16-Val) flowed over, equilibrium signal fitted to a one-site model; Binding Constants (nM).
For assay [5], the target named is human CD30 expressed on cells (L540, L428, L1236, Karpas cell lines; activated human peripheral blood cells) (human) (UniProt P28908). The experiment in a line: Scatchard analysis (Bmax), 125I-labelled antibody on L540 cells.
Assay [6] shares this target. The experiment in a line: flow cytometry on CD30-expressing L540 cells, FITC anti-human secondary antibody. On the technique in general: In flow cytometry, cells or beads pass a laser one at a time.
For assay [7] the target is unchanged. The assay is described as follows: Scatchard analysis (Bmax), 125I-labelled antibody on activated human peripheral blood cells.
For assay [8] the target is unchanged. The experiment in a line: cell-based or functional assay.
For assay [9] the target is unchanged. The assay is described as follows: Scatchard analysis, 125I-labelled antibody on PHA/Con A/IL-2 activated human peripheral blood cells.
Assay [10] has as its target cynomolgus CD30 on PHA, Con A and rIL-2 activated cynomolgus peripheral blood mononuclear cells (cynomolgus monkey). The experiment in a line: Scatchard analysis (Bmax), 125I-labelled antibody on activated cynomolgus peripheral blood mononuclear cells.
Assay [11] deals with T1, human CD30 expressed on cells (L540, L428, L1236, Karpas cell lines; activated human peripheral blood cells) (human, UniProt P28908 19-595).
T1 sequence (looked up): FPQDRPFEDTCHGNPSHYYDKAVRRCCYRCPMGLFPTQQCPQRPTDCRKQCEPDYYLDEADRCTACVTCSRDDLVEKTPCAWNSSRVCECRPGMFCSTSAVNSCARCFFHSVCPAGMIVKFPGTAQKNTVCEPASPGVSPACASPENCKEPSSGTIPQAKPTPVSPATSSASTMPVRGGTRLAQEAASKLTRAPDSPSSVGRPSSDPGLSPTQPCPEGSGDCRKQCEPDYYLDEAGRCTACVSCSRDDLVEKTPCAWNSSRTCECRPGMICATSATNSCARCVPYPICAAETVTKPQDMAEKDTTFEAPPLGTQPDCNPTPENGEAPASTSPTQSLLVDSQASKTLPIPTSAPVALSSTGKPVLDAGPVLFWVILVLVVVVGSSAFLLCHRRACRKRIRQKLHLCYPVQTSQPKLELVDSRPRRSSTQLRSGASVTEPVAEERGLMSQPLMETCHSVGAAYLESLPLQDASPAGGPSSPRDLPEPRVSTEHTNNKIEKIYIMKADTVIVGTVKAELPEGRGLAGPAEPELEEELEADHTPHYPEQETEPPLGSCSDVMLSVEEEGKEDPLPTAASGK
The experiment in a line: cell-based or functional assay.

The target of assay [12] is T1, human CD30 expressed on cells (L540, …). The assay is described as follows: flow cytometry on CD30-expressing L540 cells, FITC anti-human secondary antibody.
Assay [13] has the same target. The assay is described as follows: cell-based or functional assay. The source holds these as a separate data set.
Assay [14] has the same target. The assay is described as follows: Scatchard analysis, 125I-labelled antibody on L540 cells. Here is the method:
(§1) Human or cynomolgus peripheral blood cells were stimulated with 2 μg/ml PHA, 10 μg/ml Con A, and 50 U/ml rIL-2 and cultured in RPMI1640 media containing 10% fetal bovine serum (FBS) at 1×10⁶ cells/ml density for 3 days. On the day of the study, the cells were washed and adjusted to 2×10⁷ cells/ml in binding buffer (RPMI1640+10% FBS). […] The cells were placed on ice until the initiation of the experiment. Millipore glass fiber filter plates (MAFBNOB50) were coated with 1% nonfat dry milk in water and stored a 4° C. overnight. The plates were washed three times with 0.2 ml of binding buffer. Fifty microliters of buffer alone was added to the maximum binding wells (total binding). Twenty-five microliters of buffer alone was added to the control wells. Varying concentration of ¹²⁵I-anti-CD30 antibody was added to all wells in a volume of 25 μl. Varying concentrations of unlabeled antibody at 300-400 fold excess were added in a volume of 25 μl to control wells (non-specific binding) and 25 μl of CD30 positive L540 cells or stimulated human or cynomolgus peripheral blood cells in binding buffer were added to all wells. The plates were incubated for 2 hours at 200 RPM on a shaker at 4° C. At the completion of the incubation the Millipore plates were washed twice with 0.2 ml of cold wash buffer (RPMI1640, 10% FBS, 500 mM NaCl). The filters were removed and counted in a gamma counter. […]

Assay [15] has as its target T2, cynomolgus CD30 on PHA, Con A and rIL-2 activated cynomolgus peripheral blood mononuclear cells (cynomolgus monkey, UniProt A0A2K5VW07 29-603).
T2 construct: whole, on cells
T2 sequence: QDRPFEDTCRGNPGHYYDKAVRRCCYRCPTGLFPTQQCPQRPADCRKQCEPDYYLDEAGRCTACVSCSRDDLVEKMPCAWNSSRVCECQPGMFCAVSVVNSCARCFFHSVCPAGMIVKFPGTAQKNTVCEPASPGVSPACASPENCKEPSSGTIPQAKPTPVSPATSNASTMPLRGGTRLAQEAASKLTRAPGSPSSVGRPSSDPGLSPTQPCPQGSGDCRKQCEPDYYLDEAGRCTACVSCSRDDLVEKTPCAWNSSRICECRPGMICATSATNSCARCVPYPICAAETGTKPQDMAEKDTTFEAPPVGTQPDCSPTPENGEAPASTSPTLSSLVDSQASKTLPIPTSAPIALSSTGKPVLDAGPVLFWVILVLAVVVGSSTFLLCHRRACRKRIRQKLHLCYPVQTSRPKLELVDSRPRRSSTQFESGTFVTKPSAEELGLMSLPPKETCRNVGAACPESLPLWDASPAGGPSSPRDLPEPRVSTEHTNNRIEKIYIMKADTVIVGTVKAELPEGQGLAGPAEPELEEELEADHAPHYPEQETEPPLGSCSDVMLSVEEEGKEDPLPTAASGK
The assay is described as follows: Scatchard analysis, 125I-labelled antibody on PHA/Con A/IL-2 activated cynomolgus peripheral blood mononuclear cells. Here is the method:
as §1

Assay [16] has as its target T1, human CD30 expressed on cells (L540, …). The assay is described as follows: Scatchard analysis, 125I-labelled antibody on PHA/Con A/IL-2 activated human peripheral blood cells. Here is the method: as §1

Where “and” joins values, the source holds several entries; their conditions need not be identical. Identical values can stand only once.

Consider three molecules from patent US20090175886A1 (Bristol-Myers Squibb, published 2009).

human FcRgammaIIIa, Phe^158 allotype (human), sequence (P08637 17-208 limits assumed): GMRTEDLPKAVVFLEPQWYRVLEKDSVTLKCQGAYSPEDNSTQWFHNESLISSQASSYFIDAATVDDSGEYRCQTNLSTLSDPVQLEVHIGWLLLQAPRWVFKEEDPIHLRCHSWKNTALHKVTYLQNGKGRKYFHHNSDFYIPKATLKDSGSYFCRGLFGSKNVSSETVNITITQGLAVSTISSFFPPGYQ
human FcRgammaIIIa, Val^158 allotype (human), sequence (P08637 17-208 F176V limits assumed): as the sequence (P08637 17-208 limits assumed) above, with F160V counted along it

Usually Kd stands for the concentration at which binding is half-saturated. One may read the EC50 as the concentration needed to bring the measured effect to its halfway point. As for “fucosylated 5F11 human anti-CD30 monoclonal antibody produced in CHO DG44 cells”, the dissociation constant Kd in [1] is 0.47 nM. Besides, in assay [2], the Kd was 1.37 nM. Moreover, the dissociation constant Kd in assay [3] amounted to 1090 nM. For the same molecule, the Kd in assay [4] was found to be 177 nM. Further, the Receptors Per Cell (ave) (receptors per cell) in [5] was found to be 2.5e+06. The molecule further gave an EC50 in assay [6] of 0.18 µg/mL. In assay [7], this molecule yielded a Receptors Per Cell (ave) (receptors per cell) of 45700. In assay [8], this molecule returned a % Lysis, 51Cr release ADCC, Karpas cells, 25 µg/ml antibody, target:effector 1:50 of 19%; a % Lysis, 51Cr release ADCC, L428 cells, 25 µg/ml antibody, target:effector 1:50 of 20%; a % Lysis, 51Cr release ADCC, L540 cells, 25 µg/ml antibody, target:effector 1:50 of 42%; a % Lysis, 51Cr release ADCC, L1236 cells, 25 µg/ml antibody, target:effector 1:50 of 4%. Besides, in [8], the % cell lysis, ADCC, Karpas 299 cells, cynomolgus effector cells, 10 µg/mL antibody was 7% and 10%; the EC50 of ADCC, Karpas cells was 0.25 µg/mL; the EC50 of ADCC, L428 cells was 0.1 µg/mL; the EC50 of ADCC, L540 cells was 0.042 µg/mL. In [8], the EC50 of ADCC, L540 cells, heterozygous FcRγIIIaPhe/Val^158 human effector cells stood at 0.0589 µg/mL; the EC50 of ADCC, L540 cells, homozygous FcγIIIa Phe/Phe^158 effector cells is 0.0337 µg/mL; the EC50 of ADCC, L1236 cells came out at 1.22 µg/mL; the maximal percent cell lysis, ADCC, L540 cells, heterozygous FcRγIIIaPhe/Val^158 human effector cells came out at 31%. In assay [8], the maximal percent cell lysis, ADCC, L540 cells, homozygous FcγIIIa Phe/Phe^158 effector cells stood at 15%. Besides, in [9], the Kd is 1.08 nM. Further, the Receptors Per Cell (ave) (receptors per cell) in assay [10] was 72800.

B1: 5F11 LEX^Opt mAb (glyco-optimized 5F11 produced in Lemna minor with FucT/XylT RNAi, vector MDXA04) (antibody, V domains shown)
VH: QVQLQQWGAGLLKPSETLSLTCAVYGGSFSAYYWSWIRQPPGKGLEWIGDINHGGGTNYNPSLKSRVTISVDTSKNQFSLKLNSVTAADTAVYYCASLTAYWGQGSLVTVSS
VL: DIQMTQSPTSLSASVGDRVTITCRASQGISSWLTWYQQKPEKAPKSLIYAASSLQSGVPSRFSGSGSGTDFTLTISSLQPEDFATYYCQQYDSYPITFGQGTRLEIK
notes: N-glycans at Asn 297 are 95.8% GnGn (G0), with no fucosyl or xylosyl; also called MDXA04 derived mAb; glyco-optimized anti-CD30 mAb
For the molecule B1, in assay [11], the “EC50 of ADCC, L540 cells, FcγRIIIa Phe/Phe^158 effector cells” value was found to be 0.0199 µg/mL; the “EC50 of ADCC, L540 cells, FcγRIIIa Val/Phe^158 effector cells” value amounted to 0.0131 µg/mL; the “fold increase in ADCC activity compared to 5F11 CHO” value came to 20 fold. Also, in assay [3], the Kd was determined as 41 nM. Also, a half-maximal response in [12] (EC50) required 0.196 µg/mL.

B2: defucosylated 5F11 human anti-CD30 monoclonal antibody produced in Ms704 (FUT8-/-) cells (antibody, V domains shown)
VH: QVQLQQWGAGLLKPSETLSLTCAVYGGSFSAYYWSWIRQPPGKGLEWIGDINHGGGTNYNPSLKSRVTISVDTSKNQFSLKLNSVTAADTAVYYCASLTAYWGQGSLVTVSS
VL: DIQMTQSPTSLSASVGDRVTITCRASQGISSWLTWYQQKPEKAPKSLIYAASSLQSGVPSRFSGSGSGTDFTLTISSLQPEDFATYYCQQYDSYPITFGQGTRLEIK
notes: also called defuc-5F11; defucosylated anti-CD30 antibody
For the molecule B2, in assay [13], the “% Lysis ratio fucosyl-:fucosyl+, ADCC, Karpas cells” value is 2.63; the “% Lysis ratio fucosyl-:fucosyl+, ADCC, L428 cells” value amounted to 2.15; the “% Lysis ratio fucosyl-:fucosyl+, ADCC, L540 cells” value came to 1.61; the “% Lysis ratio fucosyl-:fucosyl+, ADCC, L1236 cells” value is 3.25. Also, in assay [13], the “EC50 of ADCC, Karpas cells” value worked out at 0.032 µg/mL; the “EC50 of ADCC, L428 cells” value came to 0.009 µg/mL; the “EC50 of ADCC, L540 cells” value is 0.009 µg/mL; the “EC50 of ADCC, L1236 cells” value was found to be 0.045 µg/mL. For the same molecule, in assay [13], the “EC50 ratio fucosyl+:fucosyl-, ADCC, Karpas cells” value worked out at 7.8; the “EC50 ratio fucosyl+:fucosyl-, ADCC, L428 cells” value came to 11.1; the “EC50 ratio fucosyl+:fucosyl-, ADCC, L540 cells” value was found to be 4.7; the “EC50 ratio fucosyl+:fucosyl-, ADCC, L1236 cells” value was 27.1. Besides, the Kd in assay [14] amounted to 1.93 nM. For the same molecule, binding in assay [15] was characterised by a dissociation constant (Kd) of 0.83 nM. In assay [16], this molecule yielded a Kd of 2.66 nM.
